The source of these data is US20230082465A1 (Hoffmann-La Roche, published 2023).

For assay [1], the target named is T1, Fibrinogen Fragment Y (human, UniProt P02671 20-225; P02675 73-491; P02679 27-437, limits assumed).
T1 construct: domain: Fibrinogen Fragment Y; Made in-house by digesting purified human fibrinogen with plasmin, then purified by SEC; also called Y (Fibrinogen)
T1 sequence (looked up) 1: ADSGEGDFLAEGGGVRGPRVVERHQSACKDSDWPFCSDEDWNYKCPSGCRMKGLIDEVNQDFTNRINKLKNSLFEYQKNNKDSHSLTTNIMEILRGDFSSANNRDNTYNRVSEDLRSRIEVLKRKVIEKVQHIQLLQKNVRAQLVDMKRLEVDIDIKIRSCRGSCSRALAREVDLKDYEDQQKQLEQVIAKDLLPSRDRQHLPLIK
T1 sequence (looked up) 2: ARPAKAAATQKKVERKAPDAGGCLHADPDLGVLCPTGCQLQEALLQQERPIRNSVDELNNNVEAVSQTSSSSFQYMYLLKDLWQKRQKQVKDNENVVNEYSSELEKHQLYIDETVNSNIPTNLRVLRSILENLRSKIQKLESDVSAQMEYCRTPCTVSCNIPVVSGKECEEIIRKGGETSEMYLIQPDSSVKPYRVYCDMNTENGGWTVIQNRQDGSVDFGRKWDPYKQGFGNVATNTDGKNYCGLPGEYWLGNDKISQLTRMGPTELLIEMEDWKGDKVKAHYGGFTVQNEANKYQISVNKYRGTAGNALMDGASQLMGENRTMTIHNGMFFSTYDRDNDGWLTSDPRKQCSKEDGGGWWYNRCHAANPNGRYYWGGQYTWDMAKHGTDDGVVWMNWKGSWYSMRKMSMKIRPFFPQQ
T1 sequence (looked up) 3: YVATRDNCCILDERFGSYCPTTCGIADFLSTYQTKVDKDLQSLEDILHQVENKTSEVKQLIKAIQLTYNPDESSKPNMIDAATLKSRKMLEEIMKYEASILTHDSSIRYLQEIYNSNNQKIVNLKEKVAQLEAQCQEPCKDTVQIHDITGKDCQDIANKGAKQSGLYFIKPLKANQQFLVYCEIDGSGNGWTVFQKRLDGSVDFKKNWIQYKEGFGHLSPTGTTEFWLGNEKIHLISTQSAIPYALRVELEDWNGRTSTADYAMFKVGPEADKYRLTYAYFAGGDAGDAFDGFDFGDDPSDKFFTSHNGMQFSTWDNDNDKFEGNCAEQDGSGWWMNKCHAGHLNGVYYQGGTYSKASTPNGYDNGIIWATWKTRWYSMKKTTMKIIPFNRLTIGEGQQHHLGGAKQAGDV
Put plainly: BLI Octet Red96e, biotinylated antibody on streptavidin tips; KD grade + = >=10^-8 M. As for the experimental part: (§1) The same set of mAbs were subjected to binding studies with fibrinogen, D-Dimer, and purified fibrin and fibrinogen fragments (see Table 2) using the BLI Octet Red96e system from Sartorius. KD was measured by loading biotinylated antibody samples on streptavidin BLI tips and introducing serial dilutions of prepared fragments. […] The experiments were conducted at room temperature and pressure.
(Biolayer interferometry detects binding as a change in optical thickness at a sensor tip.)

Assay [2] addresses T2, Fibrinogen Fragment X (human, UniProt P02671 20-238; P02675 73-491; P02679 27-437, limits assumed).
T2 construct: domain: Fibrinogen Fragment X; Made in-house by digesting purified human fibrinogen with plasmin, then purified by SEC; also called X (Fibrinogen)
T2 sequence (looked up) 1: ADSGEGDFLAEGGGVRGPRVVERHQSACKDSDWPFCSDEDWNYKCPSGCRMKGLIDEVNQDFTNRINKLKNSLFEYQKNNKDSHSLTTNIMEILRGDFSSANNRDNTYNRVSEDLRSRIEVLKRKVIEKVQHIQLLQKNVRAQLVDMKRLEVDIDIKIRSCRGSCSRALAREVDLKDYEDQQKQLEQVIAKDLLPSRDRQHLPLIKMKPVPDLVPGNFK
T2 sequence (looked up) 2: T1 sequence (looked up) 2
T2 sequence (looked up) 3: T1 sequence (looked up) 3
The description is as above. As for the experimental part:
as §1

Assay [3] addresses T3, Fibrinogen Fragment D (human, UniProt P02671 124-216; P02675 164-491; P02679 89-437, limits assumed).
T3 construct: domain: Fibrinogen Fragment D; Made in-house by digesting purified human fibrinogen with plasmin, then purified by SEC; also called fragment D from fibrinogen; D (Fibrinogen)
T3 sequence (looked up) 1: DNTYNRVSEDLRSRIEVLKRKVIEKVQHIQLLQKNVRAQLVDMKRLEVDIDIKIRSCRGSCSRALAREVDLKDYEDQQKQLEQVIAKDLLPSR
T3 sequence (looked up) 2: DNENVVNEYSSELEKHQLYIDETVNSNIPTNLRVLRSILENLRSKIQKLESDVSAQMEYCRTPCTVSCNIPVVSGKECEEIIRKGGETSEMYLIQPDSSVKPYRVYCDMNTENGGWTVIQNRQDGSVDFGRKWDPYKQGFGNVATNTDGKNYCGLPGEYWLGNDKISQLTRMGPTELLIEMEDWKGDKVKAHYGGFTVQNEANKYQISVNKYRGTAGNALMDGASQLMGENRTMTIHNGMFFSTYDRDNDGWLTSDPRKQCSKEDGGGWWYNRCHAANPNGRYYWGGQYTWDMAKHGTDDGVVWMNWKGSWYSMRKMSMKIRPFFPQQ
T3 sequence (looked up) 3: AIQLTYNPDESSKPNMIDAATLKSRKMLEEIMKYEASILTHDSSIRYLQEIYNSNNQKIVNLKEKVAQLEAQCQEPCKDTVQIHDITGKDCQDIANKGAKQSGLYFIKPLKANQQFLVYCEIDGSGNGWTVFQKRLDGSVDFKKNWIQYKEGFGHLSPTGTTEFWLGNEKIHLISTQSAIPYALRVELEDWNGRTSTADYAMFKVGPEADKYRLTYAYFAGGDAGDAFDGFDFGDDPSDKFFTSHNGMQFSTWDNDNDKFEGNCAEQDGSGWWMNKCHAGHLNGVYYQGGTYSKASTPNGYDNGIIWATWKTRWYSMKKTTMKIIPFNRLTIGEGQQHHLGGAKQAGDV
The assay is described as above. The procedure:
as §1

Assay [4] has as its target T4, Fragment E from fibrin (UniProt P02671 36-97; P02675 84-152; P02679 27-88, limits assumed).
T4 construct: domain: Fragment E from fibrin; also called E (Fibrin)
T4 sequence (looked up) 1: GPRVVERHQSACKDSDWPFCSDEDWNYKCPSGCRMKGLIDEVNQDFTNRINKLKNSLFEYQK
T4 sequence (looked up) 2: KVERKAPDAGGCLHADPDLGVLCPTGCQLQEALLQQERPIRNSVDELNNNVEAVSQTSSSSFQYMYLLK
T4 sequence (looked up) 3: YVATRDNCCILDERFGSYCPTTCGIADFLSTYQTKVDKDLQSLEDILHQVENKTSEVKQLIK
Put plainly: BLI Octet Red96e, biotinylated antibody on streptavidin tips.

In assay [5] the target is T5, Fragment E from fibrinogen (UniProt P02671 20-97; P02675 84-152; P02679 27-79, limits assumed).
T5 construct: domain: Fragment E from fibrinogen; also called E (Fibrinogen)
T5 sequence (looked up) 1: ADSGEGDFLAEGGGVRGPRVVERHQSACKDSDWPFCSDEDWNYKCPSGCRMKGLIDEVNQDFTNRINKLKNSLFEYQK
T5 sequence (looked up) 2: T4 sequence (looked up) 2
T5 sequence (looked up) 3: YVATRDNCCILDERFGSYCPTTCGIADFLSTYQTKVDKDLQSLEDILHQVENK
The description is as above.

Assay [6] concerns the target T6, Fragment E (human, UniProt P02671 20-97; P02675 84-152; P02679 27-79, limits assumed).
T6 construct: domain: Fragment E
T6 sequence (looked up) 1: T5 sequence (looked up) 1
T6 sequence (looked up) 2: T4 sequence (looked up) 2
T6 sequence (looked up) 3: T5 sequence (looked up) 3
Put plainly: BLI Octet, Example 4, FIG. 5.

B1: recombinant antibody #12 (antibody, V domains shown)
VH: QVQLQQPGAEVVRPGASVKLSCKASGYSFTSYWIHWLKQGPHQGLEWIGRIDPDDSETHYNQKFKDKALLTVDKSSSTAYMQLRSLTSEDSAVYYCARTNWDAWFAYWGQGTLVTVSA
VL: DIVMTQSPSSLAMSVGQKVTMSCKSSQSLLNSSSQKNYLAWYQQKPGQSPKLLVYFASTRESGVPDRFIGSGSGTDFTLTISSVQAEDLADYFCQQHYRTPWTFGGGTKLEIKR
notes: The heavy chain is truncated after the murine IgG2a hinge and has no Fc; also called Ab#12; Ab#12 (Grifols)
As a reminder, the KD is the constant that tells how readily two partners part at equilibrium. With B1, the KD in assay [1], in assay [2] and in assay [3] was at least 10 nM in each case. Besides, the binding result in assay [4], in assay [5] and in assay [6] was “no binding” throughout.
